18 molecules from patent US20230037815A1 (CULLINAN THERAPEUTICS, published 2023) can be followed below.

Numbering of substitutions follows the chain as printed.

Sequences and labels used below:
T1: human CD19 (human, UniProt P15391 20-291, biotinylated in the Biacore assay of Table 11)
T1 construct: also called isolated CD19; Human CD19 Protein
T1 sequence (looked up): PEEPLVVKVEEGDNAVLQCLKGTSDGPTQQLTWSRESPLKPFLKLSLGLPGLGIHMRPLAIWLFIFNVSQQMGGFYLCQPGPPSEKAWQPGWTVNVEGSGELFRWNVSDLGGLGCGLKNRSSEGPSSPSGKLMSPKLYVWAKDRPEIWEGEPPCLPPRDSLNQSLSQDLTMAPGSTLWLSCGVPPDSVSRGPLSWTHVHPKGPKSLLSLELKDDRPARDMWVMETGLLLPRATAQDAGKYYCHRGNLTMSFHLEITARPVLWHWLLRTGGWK

B1: CNG-HSA-105 (VHH)
VHH: EVQLLESGGGLVQPGGSLRLSCAASGFVFSSFGMSWVRQAPGKGLEWVSSISGSGSDTLYADSVKGRFTISRDNSKNTLYLQMNSLRPEDTAVYYCTIGGSLSRSSQGTLVTVSS
B2: CNG-HSA-102 (VHH)
VHH: B1 VHH with E1K, V28T, K65R, R104P
B3: CNG-HSA-110 (VHH)
VHH: B1 VHH with E1K, L5V, G16N, V28T, S56G, V64A
B4: CNG-HSA-109 (VHH)
VHH: B1 VHH with E1K, L5V, G16N, V28T, S30G, L45P
B5: CNG-HSA-111 (VHH)
VHH: B1 VHH with E1K, L5V, V28T, K65E, P88A, S103K, R104Q
B6: CNG-HSA-112 (VHH)
VHH: B1 VHH with E1K, V28T, S30P, S75A, N77T, L102V, R104K, Q107R
B7: CNG-HSA-113 (VHH)
VHH: B1 VHH with E1G, V28T, S54T, S103R, R104Y
B8: CNG-HSA-107 (VHH)
VHH: B1 VHH with E1K, V28T, K65R, P88A, T97S, S103I
B9: CNG-HSA-116 (VHH)
VHH: B1 VHH with E1K, L5V, V28T, L45P, P88A, S103R, R104A
B10: CNG-HSA-108 (VHH)
VHH: B1 VHH with E1K, L5V, V28T, S30G, S56A, P88A, S103R, R104A
B11: CNG-CD19-701 VL-VH scFv with disulfide bond (scFv)
chain: EIVLTQSPATLSLSPGERATLSCSASSSVGYMHWYQQKPGQAPRLLIYDTSKLASGIPARFSGSGSGTDFTLTISSLEPEDFAVYYCFQGSVYPFTFGCGTKLEIKGGGGSGGGGSGGGGSQVQLQESGPGLVKPSQTLSLTCTVSGGSISTSTMGVGWIRQHPGKCLEWIGFIWWDDDKRYNPNLKSRVTMSVDTSKNQFSLKLSSVTAADTAVYYCARMELWSYYFDYWGQGTLVTVSS
B12: CNG-CD19-103 VL-VH scFv with disulfide bond (scFv)
chain: DIVMTQTPLSLSVTPGQPASISCKSSQSLETATGTTYLNWYLQKPGQSPQLLIYRVSRRFSGVPDRFSGSGSGTDFTLKISRVEAEDVGVYYCLQLLEDPYSFGCGTKLEIKGGGGSGGGGSGGGGSQVQLVQSGAEVKKPGASVKVSCKASGYTFTDYIMHWVRQAPGQCLEWMGYINPYNDGSKYTEKFQGRVTMTSDTSISTAYMELSRLRSDDTAVYYCARGTYYYGPQLFDYWGQGTTVTVSS
B13: CNG-CD19-101 VL-VH scFv with disulfide bond (scFv)
scFv: B12 chain with A32T, V56A, R58K, S102T, T155D, E189D, G193E, Q233E
notes: Cys at position 44 of VH and 100 of VL already in the entry; also called scFv with Cys substitutions
B14: CNG-CD19-707 VL-VH scFv (scFv)
scFv: B11 chain with C99Q, C167G, Y230P
B15: CNG-CD19-710 VL-VH scFv (scFv)
scFv: EIVLTQSPATLSLSPGERATLSCSASSSFSYMHWYQQKPGQAPRLLIYDTSKLASGIPARFSGSGSGTDFTLTISSLEPEDFAVYYCFQGSVYPFTFGQGTKLEIKGGGGSGGGGSGGGGSQVQLQESGPGLVKPSQTLSLTCTVSGVSISTSSMGVGWIRQHPGKGLEWIGHAWWDDDKRYNPALKSRVTISVDTSKNQFSLKLSSVTAADTAVYYCARMELWSYYFDPWGQGTLVTVSS
B16: CNG-CD19-701 VL-VH scFv (scFv)
scFv: B11 chain with C99Q, C167G
B17: CNG-CD19-101 VL-VH scFv (scFv)
scFv: B12 chain with A32T, V56A, R58K, S102T, C105Q, T155D, C171G, E189D, G193E, Q233E
notes: scFv without the engineered disulfide
B18: CNG-CD19-103 VL-VH scFv (scFv)
scFv: B12 chain with C105Q, C171G

T2 sequence (P07724 25-608 limits assumed): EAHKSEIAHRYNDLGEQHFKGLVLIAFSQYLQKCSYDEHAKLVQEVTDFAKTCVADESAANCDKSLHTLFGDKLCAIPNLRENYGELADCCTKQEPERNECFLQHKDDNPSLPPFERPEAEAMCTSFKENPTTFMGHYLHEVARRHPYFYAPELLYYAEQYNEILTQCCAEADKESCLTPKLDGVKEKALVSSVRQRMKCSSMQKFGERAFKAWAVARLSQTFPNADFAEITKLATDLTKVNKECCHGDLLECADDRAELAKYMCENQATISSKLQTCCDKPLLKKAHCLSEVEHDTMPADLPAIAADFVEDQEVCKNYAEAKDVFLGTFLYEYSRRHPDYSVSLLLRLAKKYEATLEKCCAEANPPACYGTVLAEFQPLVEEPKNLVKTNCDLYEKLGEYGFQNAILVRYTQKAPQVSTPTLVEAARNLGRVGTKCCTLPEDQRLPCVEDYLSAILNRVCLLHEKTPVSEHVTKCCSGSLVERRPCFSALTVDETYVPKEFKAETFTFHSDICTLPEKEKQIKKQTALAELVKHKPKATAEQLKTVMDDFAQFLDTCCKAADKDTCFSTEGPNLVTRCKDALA
cynomolgus serum albumin, sequence (A2V9Z4 25-608 limits assumed): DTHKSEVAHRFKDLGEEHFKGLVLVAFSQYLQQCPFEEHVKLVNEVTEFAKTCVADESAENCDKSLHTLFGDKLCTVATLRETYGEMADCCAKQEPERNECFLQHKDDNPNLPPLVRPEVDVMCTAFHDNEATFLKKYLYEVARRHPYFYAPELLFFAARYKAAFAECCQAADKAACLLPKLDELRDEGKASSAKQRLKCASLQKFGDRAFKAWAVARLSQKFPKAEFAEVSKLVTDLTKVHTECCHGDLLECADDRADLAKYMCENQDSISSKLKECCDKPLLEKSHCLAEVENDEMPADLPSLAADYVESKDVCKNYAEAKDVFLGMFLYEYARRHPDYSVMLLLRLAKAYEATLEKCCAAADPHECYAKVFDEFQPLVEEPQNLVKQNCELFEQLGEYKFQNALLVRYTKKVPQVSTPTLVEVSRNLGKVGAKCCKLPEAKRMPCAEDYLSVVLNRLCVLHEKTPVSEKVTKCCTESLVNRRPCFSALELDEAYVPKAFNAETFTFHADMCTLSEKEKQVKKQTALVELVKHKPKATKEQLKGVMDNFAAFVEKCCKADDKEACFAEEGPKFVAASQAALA

One assay has as its target T2, mouse serum albumin (mouse, UniProt P07724 25-608).
T2 construct: also called MSA
Nature of the assay: Octet HTX (ForteBio), HCAb on AHC sensor, 1:1 fit.
Turning to B1, the Kd (as a rule, a measure of binding affinity in units of concentration) is 154 nM and the koff (in general, the rate constant with which the complex falls apart) is 0.0206 s⁻¹.
The like results for B2 were, in that order, 41.4 nM and 0.00738 s⁻¹.
B3 had a Kd of 38.9 nM and a koff of 0.00838 s⁻¹.
The like results for B4 were, in that order, 11.9 nM and 0.00284 s⁻¹.
For B5, in that order: 10.2 nM and 0.00231 s⁻¹.
The like results for B6 were, in that order, 66.7 nM and 0.013 s⁻¹.
The molecule B7 had a Kd of 52 nM and a koff of 0.0101 s⁻¹.
For B8, in that order: 45.6 nM and 0.00851 s⁻¹.
For the molecule B9, the Kd was determined as 4.56 nM and the koff was determined as 0.00108 s⁻¹.
For B10, in that order: 8.06 nM and 0.00185 s⁻¹.

The next assay addresses cynomolgus serum albumin (cynomolgus, UniProt A2V9Z4 25-608). Description: Octet HTX (ForteBio), HCAb on AHC sensor, 1:1 fit. (In general: BLI is a label-free optical method that tracks binding on a fibre tip over time.)
In turn, B1 came in with a Kd of 12.7 nM and a koff of 0.00163 s⁻¹.
For B2, in that order: 3.65 nM and 0.000568 s⁻¹.
Molecule B3 returned a Kd of 5.2 nM and a koff of 0.000759 s⁻¹.
For B4, in that order: 3.1 nM and 0.000503 s⁻¹.
The like results for B5 were, in that order, 6.13 nM and 0.000884 s⁻¹.
On to B6, for which the Kd stood at 7.43 nM and the koff was 0.00115 s⁻¹.
Consider B7, for which binding was characterised by a dissociation constant (Kd) of 12.1 nM and the koff is 0.0017 s⁻¹.
On to B8, for which the affinity, expressed as Kd, was 13.3 nM and the koff worked out at 0.00182 s⁻¹.
On to B9, for which binding was characterised by a dissociation constant (Kd) of 3.85 nM and the koff was 0.000597 s⁻¹.
Consider B10, for which binding was characterised by a dissociation constant (Kd) of 5.27 nM and the koff amounted to 0.000794 s⁻¹.

For another assay, the target named is protein A (UniProt P38507 37-327). Nature of the assay: Octet HTX (ForteBio), HCAb on AHC sensor, 1:1 fit.
Regarding B1, the Kd amounted to 2.76 nM and the koff was determined as 0.000297 s⁻¹.
The molecule B2 yielded a Kd of 1.7 nM and a koff of 0.0002 s⁻¹.
The like results for B3 were, in that order, 3.67 nM and 0.000378 s⁻¹.
For B4, in that order: 1.78 nM and 0.0002 s⁻¹.
As to B5, the dissociation constant (Kd) stood at 2.84 nM and the off-rate (koff) was found to be 0.0002 s⁻¹.
For B6, in that order: 3.44 nM and 0.000375 s⁻¹.
Regarding B7, the Kd was determined as 1.7 nM and the koff came to 0.0002 s⁻¹.
B8 returned a Kd of 3.09 nM and a koff of 0.000333 s⁻¹.
For B9, in that order: 1.75 nM and 0.0002 s⁻¹.
For B10, in that order: 2.94 nM and 0.000294 s⁻¹.

The next assay has as its target T3, human serum albumin (human, UniProt P02768 25-609).
T3 construct: also called HSA
Nature of the assay: Octet HTX (ForteBio), HCAb on AHC sensor, 1:1 fit.
With B1, the Kd was determined as 15.2 nM and the off-rate (koff) worked out at 0.002 s⁻¹.
For B2, in that order: 4.89 nM and 0.000748 s⁻¹.
Molecule B3 had a Kd of 5.7 nM and a koff of 0.000893 s⁻¹.
Turning to B4, binding was put at a Kd of 3.5 nM and the koff came out at 0.000566 s⁻¹.
For B5, in that order: 8.35 nM and 0.00117 s⁻¹.
For the molecule B6, binding was characterised by a dissociation constant (Kd) of 8.45 nM and the off-rate constant (koff) turned out to be 0.00136 s⁻¹.
With B7, the equilibrium dissociation constant (Kd) was 15.4 nM and the koff stood at 0.00214 s⁻¹.
Consider B8, for which binding was characterised by a dissociation constant (Kd) of 16.8 nM and the koff was 0.00238 s⁻¹.
The molecule B9 had a Kd of 4.65 nM and an off-rate (koff) of 0.000699 s⁻¹.
B10 displayed a Kd of 6.19 nM and a koff of 0.000958 s⁻¹.

In a further assay the target is T1, human CD19. Description: SPR Biacore 8K, captured biotinylated CD19, scFv with disulfide bond as analyte. As for the experimental part:
(§1) Additional kinetic analysis of the anti-CD19 VL-VH scFvs, with or without a disulfide bond introduced by Cys substitutions at position 44 of VH and position 100 of VL, was conducted by surface plasmon resonance (SPR). The scFv proteins were serially diluted and assessed at 25° C. in a HBS-EP+ running buffer system (10 mM HEPES pH 7.4, 150 mM NaCl, 3 mM EDTA, 0.05% Surfactant P20) using a Biacore 8K optical biosensor (Global Life Sciences Solutions USA, Marlborough, Mass.). The sample compartment was maintained at 10° C. for the duration of each experiment.
(§2) Each experiment cycle began with an injection (500 s at 2 μL/min) over flow cells 1 and 2 of a 1:20 solution of biotin CAPture reagent (Global Life Sciences Solutions USA) in running buffer. This was followed by an injection (300 s at 4.0 μL/min) of biotinylated CD-19 (40 nM) overflow cell 2. Upon capture of CD19 to the sensor surface, test scFvs (16.2 to 0.067 nM, 3-fold dilution in running buffer) was injected (300 s at 30 uL/min) over flow cells 1 and 2. The dissociation of the scFvs was monitored for a duration of 2564 s. Finally, an injection (90 s at 10 μL/min) of regeneration solution (6 M Guanidine-HCl in 0.25 M NaOH) overflow cells 1 and 2 was used to prepare the sensor surface for another cycle.
B11 registered a Kd of 0.0141 nM and a koff of 2e-05 s⁻¹.
Turning to B12, binding was characterised by a dissociation constant (Kd) of 0.0178 nM and the koff is 4.85e-05 s⁻¹.
The like results for B13 were, in that order, 0.0139 nM and 4.88e-05 s⁻¹.

Another assay has as its target T1, human CD19. Description: SPR Biacore 8K, captured biotinylated CD19, scFv analyte. As for the experimental part: as §1, §2
The molecule B14 returned a Kd of 0.0122 nM and a koff of 2e-05 s⁻¹.
For B15, in that order: 0.0218 nM and 2e-05 s⁻¹.
The like results for B16 were, in that order, 0.0148 nM and 2e-05 s⁻¹.
Take B17: the Kd stood at 0.00673 nM and the koff stood at 2e-05 s⁻¹.
For B18, in that order: 0.00991 nM and 2.41e-05 s⁻¹.

Another assay deals with T2, mouse serum albumin. Nature of the assay: ratio of the Octet KD for mouse serum albumin to that for human serum albumin.
Turning to B1, the “Ratio of MSA-KD to HSA-KD” value came out at 10.1.
Still for that read-out and setting: with B2 the figure was 8.46; with B3, 6.82; with B4, 3.4.
B5: the “Ratio of MSA-KD to HSA-KD” value amounted to 1.23.
For B6, the “Ratio of MSA-KD to HSA-KD” value was found to be 7.9.
With B7, the “Ratio of MSA-KD to HSA-KD” value was 3.38.
On the same count and under the same terms, with B8 the figure was 2.72.
B9: the “Ratio of MSA-KD to HSA-KD” value was determined as 0.98.
The same measure, in the same setting: with B10 the figure was 1.3.
